Key:
[1] = target: T1, human FGFR3b-ecto.mmH (human, UniProt P22607 23-806); assay: Biacore SPR, 25 C, mmh-tagged FGFR3
T1 construct: also called hFGFR3b (mmh); hFGFR3b-mmh; not shown: mmh tag

[2] = target: T2, mouse FGFR3b-ecto.mmH (mouse, UniProt Q61851 21-801); assay: Biacore SPR, 25 C, mmh-tagged FGFR3
T2 construct: also called moFGFR3b (mmh); monomeric mouse FGFR3b; not shown: mmh tag
T2 sequence (Q61851 other isoform, or with tags, fused parts or gaps): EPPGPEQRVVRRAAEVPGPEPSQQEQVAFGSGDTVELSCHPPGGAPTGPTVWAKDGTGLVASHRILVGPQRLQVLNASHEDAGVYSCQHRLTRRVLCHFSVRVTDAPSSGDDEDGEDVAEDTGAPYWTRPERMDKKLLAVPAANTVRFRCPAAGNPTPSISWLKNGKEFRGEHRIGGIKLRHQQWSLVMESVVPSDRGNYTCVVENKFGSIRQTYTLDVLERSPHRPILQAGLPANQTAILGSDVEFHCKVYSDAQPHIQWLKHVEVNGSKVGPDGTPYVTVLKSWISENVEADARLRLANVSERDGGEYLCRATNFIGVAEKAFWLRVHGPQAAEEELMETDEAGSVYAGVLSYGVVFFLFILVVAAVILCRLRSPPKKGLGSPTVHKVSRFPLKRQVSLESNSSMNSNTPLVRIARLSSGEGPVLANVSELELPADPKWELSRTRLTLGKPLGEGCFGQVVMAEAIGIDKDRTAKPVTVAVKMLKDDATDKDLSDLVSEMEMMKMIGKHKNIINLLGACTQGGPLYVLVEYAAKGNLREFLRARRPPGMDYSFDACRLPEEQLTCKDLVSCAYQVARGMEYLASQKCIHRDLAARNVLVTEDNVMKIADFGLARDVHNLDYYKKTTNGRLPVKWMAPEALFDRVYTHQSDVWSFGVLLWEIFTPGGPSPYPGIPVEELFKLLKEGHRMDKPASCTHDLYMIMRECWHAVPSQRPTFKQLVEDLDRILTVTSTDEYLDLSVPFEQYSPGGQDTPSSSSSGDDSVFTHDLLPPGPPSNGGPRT

T1 sequence (P22607 other isoform, or with tags, fused parts or gaps): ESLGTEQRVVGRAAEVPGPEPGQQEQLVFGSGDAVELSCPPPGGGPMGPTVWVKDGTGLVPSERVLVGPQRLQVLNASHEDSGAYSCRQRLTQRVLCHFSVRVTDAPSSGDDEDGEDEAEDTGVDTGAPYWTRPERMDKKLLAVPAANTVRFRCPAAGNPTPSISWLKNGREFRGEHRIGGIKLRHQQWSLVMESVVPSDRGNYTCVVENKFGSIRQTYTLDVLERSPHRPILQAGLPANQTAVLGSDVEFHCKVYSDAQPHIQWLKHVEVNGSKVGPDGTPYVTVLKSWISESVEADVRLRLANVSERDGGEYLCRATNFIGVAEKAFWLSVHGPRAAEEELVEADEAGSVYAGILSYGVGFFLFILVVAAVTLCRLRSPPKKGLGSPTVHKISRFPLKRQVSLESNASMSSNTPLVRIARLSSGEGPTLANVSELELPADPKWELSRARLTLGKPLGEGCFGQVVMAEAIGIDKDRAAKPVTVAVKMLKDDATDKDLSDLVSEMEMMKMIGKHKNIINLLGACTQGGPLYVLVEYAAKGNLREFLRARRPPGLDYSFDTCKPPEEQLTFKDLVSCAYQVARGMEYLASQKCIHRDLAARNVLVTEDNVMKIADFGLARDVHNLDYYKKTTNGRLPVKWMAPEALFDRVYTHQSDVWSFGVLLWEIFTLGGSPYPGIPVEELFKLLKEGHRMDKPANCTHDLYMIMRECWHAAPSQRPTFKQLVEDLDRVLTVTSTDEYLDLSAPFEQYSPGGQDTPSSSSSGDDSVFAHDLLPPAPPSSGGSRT

B1: H4H30063P (antibody, V domains shown)
VH: QVQLQESGPGLVKPSETLSLTCTVSGDSINSYFWSWIRQLPGKELEWIGHIYSSGSTRYNPSLQSRVTISIDTSKNQFSLKLSSVTAADTAVYYCARGASAVDYWGQGTLVTVSS
VL: EIVLTQSPGTLSLSPGERATLSCRTSQSISSGYLAWYQQKPGQAPRLLIYGASRRATGIPDRFSGSGSGTDFTLTISRLEPEDFVVYYCQQYGSSPYTFGQGTKLEIKR
- Kd [1]: 1.8 nM
- Kd [2]: 1.27 nM

From patent US20240247069A1 (Regeneron, published 2024)
